Experimental data reported in patent publication US20200085917A1.

Tests used:
Experiment in all cases: GST pull-down, LC-MS/MS
[1] = target: T1, Acsl6_IPI:IPI00123390.8 (mouse) (UniProt Q91WC3)
T1 sequence (looked up): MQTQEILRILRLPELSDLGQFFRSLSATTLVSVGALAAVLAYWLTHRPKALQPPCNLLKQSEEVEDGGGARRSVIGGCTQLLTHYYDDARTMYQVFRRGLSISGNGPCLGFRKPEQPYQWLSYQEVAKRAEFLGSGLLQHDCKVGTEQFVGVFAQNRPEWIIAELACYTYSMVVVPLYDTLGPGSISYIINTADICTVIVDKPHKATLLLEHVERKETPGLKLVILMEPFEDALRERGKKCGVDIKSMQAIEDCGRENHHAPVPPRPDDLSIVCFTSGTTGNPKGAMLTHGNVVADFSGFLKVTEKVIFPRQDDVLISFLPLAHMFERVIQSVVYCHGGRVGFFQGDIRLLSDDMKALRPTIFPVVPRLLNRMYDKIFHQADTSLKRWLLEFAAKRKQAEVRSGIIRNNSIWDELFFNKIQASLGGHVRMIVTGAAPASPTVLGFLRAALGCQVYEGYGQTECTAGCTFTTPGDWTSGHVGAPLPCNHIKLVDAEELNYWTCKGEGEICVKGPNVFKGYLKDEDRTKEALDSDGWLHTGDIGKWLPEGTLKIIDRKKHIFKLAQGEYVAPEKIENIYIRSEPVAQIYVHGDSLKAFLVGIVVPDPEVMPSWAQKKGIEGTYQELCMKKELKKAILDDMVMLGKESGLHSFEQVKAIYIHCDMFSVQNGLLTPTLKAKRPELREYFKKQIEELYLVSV

[2] = target: T2, Atp5f1_IPI:IPI00341282.2 (mouse) (UniProt Q9CQQ7)
T2 sequence (looked up): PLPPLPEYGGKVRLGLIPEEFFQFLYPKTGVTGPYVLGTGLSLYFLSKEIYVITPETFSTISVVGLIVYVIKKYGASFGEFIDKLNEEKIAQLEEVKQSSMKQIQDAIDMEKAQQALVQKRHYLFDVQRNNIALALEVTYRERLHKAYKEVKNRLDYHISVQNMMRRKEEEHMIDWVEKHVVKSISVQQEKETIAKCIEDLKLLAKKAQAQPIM

[3] = target: T3, C1qbp_IPI:IPI00132799.4 (mouse) (UniProt O35658)
T3 sequence (looked up): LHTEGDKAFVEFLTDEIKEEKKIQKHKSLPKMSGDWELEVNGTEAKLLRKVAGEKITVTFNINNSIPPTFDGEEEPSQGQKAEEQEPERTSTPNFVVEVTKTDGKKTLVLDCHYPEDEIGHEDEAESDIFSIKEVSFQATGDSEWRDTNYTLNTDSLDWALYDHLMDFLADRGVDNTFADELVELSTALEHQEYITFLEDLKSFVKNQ

[4] = target: T4, Ccdc127_IPI:IPI00131843.3 (mouse) (UniProt Q3TC33)
T4 sequence (looked up): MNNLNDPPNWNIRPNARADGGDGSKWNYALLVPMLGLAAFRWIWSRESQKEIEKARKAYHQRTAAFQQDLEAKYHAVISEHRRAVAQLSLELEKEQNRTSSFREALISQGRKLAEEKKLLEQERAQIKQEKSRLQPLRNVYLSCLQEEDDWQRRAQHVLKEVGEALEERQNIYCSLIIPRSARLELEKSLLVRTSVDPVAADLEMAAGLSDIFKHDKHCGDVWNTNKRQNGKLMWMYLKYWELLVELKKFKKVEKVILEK

[5] = target: Cend1_IPI:IPI00122826.1 (mouse) (UniProt Q9JKC6)
Cend1_IPI:IPI00122826.1 (mouse), sequence (Q9JKC6 whole entry): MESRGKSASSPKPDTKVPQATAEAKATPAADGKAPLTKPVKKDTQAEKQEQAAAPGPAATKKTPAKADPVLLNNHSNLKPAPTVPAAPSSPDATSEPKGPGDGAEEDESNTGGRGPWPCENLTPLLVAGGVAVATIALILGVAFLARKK

[6] = target: Loh12cr1_IPI:IPI00457620.2 (mouse)
[7] = target: Ndufb5_IPI:IPI00132531.1 (mouse) (UniProt Q9CQH3)
Ndufb5_IPI:IPI00132531.1 (mouse), sequence (Q9CQH3 47-189 limits assumed): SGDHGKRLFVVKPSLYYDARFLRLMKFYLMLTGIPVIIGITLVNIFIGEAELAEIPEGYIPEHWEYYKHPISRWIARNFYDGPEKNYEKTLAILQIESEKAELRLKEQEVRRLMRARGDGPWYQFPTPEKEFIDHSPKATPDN

[8] = target: T5, Pfn2_IPI:IPI00227805.6 (mouse) (UniProt Q9JJV2)
T5 sequence (looked up): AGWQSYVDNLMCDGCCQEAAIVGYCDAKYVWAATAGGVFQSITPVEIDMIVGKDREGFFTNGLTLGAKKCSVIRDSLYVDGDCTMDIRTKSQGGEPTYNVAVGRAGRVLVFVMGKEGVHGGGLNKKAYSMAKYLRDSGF

[9] = target: T6, Sfxn5_IPI:IPI00221602.1 (mouse) (UniProt Q925N0)
T6 sequence (looked up): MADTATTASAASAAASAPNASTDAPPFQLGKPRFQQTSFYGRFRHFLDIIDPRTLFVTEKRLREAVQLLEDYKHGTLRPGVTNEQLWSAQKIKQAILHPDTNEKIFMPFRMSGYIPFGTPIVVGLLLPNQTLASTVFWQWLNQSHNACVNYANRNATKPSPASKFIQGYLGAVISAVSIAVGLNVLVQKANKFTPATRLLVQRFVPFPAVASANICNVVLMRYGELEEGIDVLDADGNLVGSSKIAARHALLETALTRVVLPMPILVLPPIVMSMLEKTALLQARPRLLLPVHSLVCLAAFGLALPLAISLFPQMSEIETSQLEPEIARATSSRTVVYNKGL

[10] = target: Slc1a2_IPI:IPI00230289.1 (mouse) (UniProt P43006)
Slc1a2_IPI:IPI00230289.1 (mouse), sequence (P43006 whole entry): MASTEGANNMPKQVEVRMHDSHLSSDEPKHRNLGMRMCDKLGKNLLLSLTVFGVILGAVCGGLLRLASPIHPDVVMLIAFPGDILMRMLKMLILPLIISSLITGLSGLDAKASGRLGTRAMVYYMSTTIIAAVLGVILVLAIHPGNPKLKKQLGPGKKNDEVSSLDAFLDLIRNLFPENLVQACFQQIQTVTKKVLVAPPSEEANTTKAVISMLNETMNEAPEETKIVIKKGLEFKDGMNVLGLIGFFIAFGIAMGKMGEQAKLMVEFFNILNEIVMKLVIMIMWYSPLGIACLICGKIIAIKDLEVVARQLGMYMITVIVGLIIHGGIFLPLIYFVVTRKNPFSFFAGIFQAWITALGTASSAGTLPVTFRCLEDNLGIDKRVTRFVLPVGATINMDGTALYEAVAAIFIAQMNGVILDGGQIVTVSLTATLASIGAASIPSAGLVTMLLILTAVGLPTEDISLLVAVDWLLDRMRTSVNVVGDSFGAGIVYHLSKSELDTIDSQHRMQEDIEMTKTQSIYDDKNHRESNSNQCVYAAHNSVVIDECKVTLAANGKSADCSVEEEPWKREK

[11] = target: Slc25a1_IPI:IPI00276926.3 (mouse) (UniProt Q8JZU2)
Slc25a1_IPI:IPI00276926.3 (mouse), sequence (Q8JZU2 14-311 limits assumed): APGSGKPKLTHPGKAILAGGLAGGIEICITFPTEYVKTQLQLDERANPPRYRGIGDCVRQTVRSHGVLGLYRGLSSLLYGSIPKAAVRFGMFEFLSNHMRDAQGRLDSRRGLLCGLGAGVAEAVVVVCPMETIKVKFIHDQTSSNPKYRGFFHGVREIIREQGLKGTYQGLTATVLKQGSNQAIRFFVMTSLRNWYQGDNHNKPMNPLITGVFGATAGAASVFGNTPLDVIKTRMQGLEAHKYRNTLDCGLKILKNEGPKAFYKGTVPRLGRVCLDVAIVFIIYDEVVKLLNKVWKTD

[12] = target: Tomm20_IPI:IPI00120715.1 (mouse) (UniProt Q9DCC8)
Tomm20_IPI:IPI00120715.1 (mouse), sequence (Q9DCC8 whole entry): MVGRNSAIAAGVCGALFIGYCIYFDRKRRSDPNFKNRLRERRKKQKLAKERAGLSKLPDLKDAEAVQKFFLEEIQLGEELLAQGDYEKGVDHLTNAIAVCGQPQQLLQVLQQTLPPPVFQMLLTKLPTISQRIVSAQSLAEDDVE

[13] = target: Tuba4a_IPI:IPI00117350.1 (mouse) (UniProt P68368)
Tuba4a_IPI:IPI00117350.1 (mouse), sequence (P68368 whole entry): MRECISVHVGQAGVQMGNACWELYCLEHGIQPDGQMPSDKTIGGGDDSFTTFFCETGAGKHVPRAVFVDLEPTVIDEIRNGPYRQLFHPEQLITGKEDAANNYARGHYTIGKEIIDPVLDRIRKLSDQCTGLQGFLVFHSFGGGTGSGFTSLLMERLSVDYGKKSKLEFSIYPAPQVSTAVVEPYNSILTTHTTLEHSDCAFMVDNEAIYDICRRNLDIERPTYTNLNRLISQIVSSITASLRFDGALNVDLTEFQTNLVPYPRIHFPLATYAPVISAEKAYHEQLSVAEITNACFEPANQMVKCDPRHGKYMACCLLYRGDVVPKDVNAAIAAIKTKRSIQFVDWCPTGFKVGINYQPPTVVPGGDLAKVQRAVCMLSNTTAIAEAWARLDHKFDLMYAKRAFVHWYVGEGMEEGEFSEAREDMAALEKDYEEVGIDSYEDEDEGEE

[14] = target: Vsnl1_IPI:IPI00230418.5 (mouse) (UniProt P62761)
Vsnl1_IPI:IPI00230418.5 (mouse), sequence (P62761 2-191 limits assumed): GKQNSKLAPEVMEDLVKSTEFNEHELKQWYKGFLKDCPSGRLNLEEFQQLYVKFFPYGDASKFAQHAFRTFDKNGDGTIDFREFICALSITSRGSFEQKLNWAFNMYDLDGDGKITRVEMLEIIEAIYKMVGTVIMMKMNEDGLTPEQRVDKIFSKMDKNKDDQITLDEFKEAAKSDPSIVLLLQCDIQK

[15] = target: mt-Co2_IPI:IPI00131176.1 (mouse) (UniProt P00405)
mt-Co2_IPI:IPI00131176.1 (mouse), sequence (P00405 whole entry): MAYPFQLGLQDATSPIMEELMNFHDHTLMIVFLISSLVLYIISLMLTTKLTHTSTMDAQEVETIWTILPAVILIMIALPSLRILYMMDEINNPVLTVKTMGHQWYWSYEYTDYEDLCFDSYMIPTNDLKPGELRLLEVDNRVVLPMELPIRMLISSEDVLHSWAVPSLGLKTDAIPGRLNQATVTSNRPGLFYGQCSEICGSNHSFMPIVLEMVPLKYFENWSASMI

GST-Httex1-23Q, sequence (P08515 1-218, tags or fused parts left off): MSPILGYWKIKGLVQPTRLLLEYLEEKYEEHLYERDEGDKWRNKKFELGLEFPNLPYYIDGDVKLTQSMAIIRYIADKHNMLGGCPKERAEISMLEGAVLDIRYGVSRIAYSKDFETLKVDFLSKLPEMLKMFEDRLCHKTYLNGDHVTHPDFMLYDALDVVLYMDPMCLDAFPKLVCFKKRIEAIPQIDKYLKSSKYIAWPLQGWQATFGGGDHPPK

## GST-Httex1-23Q (from UniProt P08515 1-218; P42858 1-88)
[1]
  No. of total peptides: 2 peptides
  No. of unique peptides: 2 peptides
[2]
  No. of total peptides: 3 peptides
  No. of unique peptides: 3 peptides
[3]
  No. of total peptides: 6 peptides
  No. of unique peptides: 3 peptides
[4]
  No. of total peptides: 2 peptides
  No. of unique peptides: 2 peptides
[5]
  No. of total peptides: 3 peptides
  No. of unique peptides: 3 peptides
[6]
  No. of total peptides: 1 peptides
  No. of unique peptides: 1 peptides
[7]
  No. of total peptides: 1 peptides
  No. of unique peptides: 1 peptides
[8]
  No. of total peptides: 1 peptides
  No. of unique peptides: 1 peptides
[9]
  No. of total peptides: 3 peptides
  No. of unique peptides: 3 peptides
[10]
  No. of total peptides: 1 peptides
  No. of unique peptides: 1 peptides
[11]
  No. of total peptides: 1 peptides
  No. of unique peptides: 1 peptides
[12]
  No. of total peptides: 1 peptides
  No. of unique peptides: 1 peptides
[13]
  No. of total peptides: 3 peptides
  No. of unique peptides: 3 peptides
[14]
  No. of total peptides: 1 peptides
  No. of unique peptides: 1 peptides
[15]
  No. of total peptides: 1 peptides
  No. of unique peptides: 1 peptides

## GST-Httex1-97Q (from UniProt P08515 1-218; P42858 1-88)
[1]
  No. of total peptides: 2 peptides
  No. of unique peptides: 2 peptides
[2]
  No. of total peptides: 4 peptides
  No. of unique peptides: 4 peptides
[3]
  No. of total peptides: 3 peptides
  No. of unique peptides: 2 peptides
[4]
  No. of total peptides: 5 peptides
  No. of unique peptides: 5 peptides
[5]
  No. of total peptides: 5 peptides
  No. of unique peptides: 4 peptides
[6]
  No. of total peptides: 1 peptides
  No. of unique peptides: 1 peptides
[7]
  No. of total peptides: 1 peptides
  No. of unique peptides: 1 peptides
[8]
  No. of total peptides: 2 peptides
  No. of unique peptides: 2 peptides
[9]
  No. of total peptides: 6 peptides
  No. of unique peptides: 5 peptides
[10]
  No. of total peptides: 1 peptides
  No. of unique peptides: 1 peptides
[11]
  No. of total peptides: 2 peptides
  No. of unique peptides: 2 peptides
[12]
  No. of total peptides: 1 peptides
  No. of unique peptides: 1 peptides
[13]
  No. of total peptides: 2 peptides
  No. of unique peptides: 2 peptides
[14]
  No. of total peptides: 2 peptides
  No. of unique peptides: 2 peptides
[15]
  No. of total peptides: 4 peptides
  No. of unique peptides: 3 peptides
